± gives the uncertainty stated by the source.
B1: library; numbered along this chain (parent)
chain: MEVVDPQQLGMFTEGELMSVGMDTFIHRIDSTEVIYQPRRKRAKLIGKYLMGDLLGEGSYGKVKEVLDSETLCRRAVKILKKKKLRRIPNGEANVKKEIQLLRRLRHKNVIQLVDVLYNEEKQKMYMVMEYCVCGMQEMLDSVPEKRFPVCQAHGYFCQLIDGLEYLHSQGIVHKDIKPGNLLLTTGGTLKISDLGVAEALHPFAADDTCRTSQGSPAFQPPEIANGLDTFSGFKVDIWSAGVTLYNITTGLYPFEGDNIYKLFENIGKGSYAIPGDCGPPLSDLLKGMLEYEPAKRFSIRQIRQHSWFRKKHPPAEAPVPIPPSPDTKDRWRSMTVVPYLEDLHGADEDEDLFDIEDDIIYTQDFTVPGQVPEEEASHNGQRRGLPKAVCMNGTEAAQLSTKSRAEGRAPNPARKACSASSKIRRLSACKQQ

Variants of: B1
Experiment: STK11 functional score (HeLa growth suppression), rescaled enrichment; synonymous median = 1, nonsense median = 0 (normalised score)
Conditions: with HeLa; variant type: missense
Method: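 Deep mutational scan (TileSeq/POPCode codon randomisation) of full-length codon-optimised STK11 cDNA integrated at a Bxb1 landing pad (AAVS1) in HeLa cells. Restoring functional STK11 suppresses HeLa proliferation. Variant frequencies were measured by NGS before and after about two weeks of growth. The error-corrected enrichment log-ratio was rescaled so that synonymous median = 1 and nonsense median = 0, scores above 1 were compressed, and codon-level and three biological replicate scores were combined; error is the bootstrapped standard error. Scale: synonymous median = 1, nonsense median = 0; below 0.5 = damaging.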

Variant	STK11 functional score
R42T	0.779 ± 0.39
R42K	1.26 ± 0.84
R42W	1.68 ± 0.52
R42S	1.08 ± 0.58
Q37T	1.69 ± 0.12
Q37C	0.0953 ± 0.088
Q37P	1.16 ± 0.21
Q37F	0.309 ± 0.29
Q37L	1.15 ± 0.3
Q37H	0.921 ± 0.36
Q37S	1.34 ± 0.13
Q37V	1.38 ± 0.15
Q37W	0.288 ± 0.12
Q37A	1.34 ± 0.51
Q37R	1.34 ± 0.29
Q37D	1.4 ± 0.29
Q37I	1.65 ± 0.17
Q37G	1.08 ± 0.14
Q37N	0.934 ± 0.53
Q37M	1.17 ± 0.1
K48N	0.966 ± 0.39
K48Q	1.41 ± 0.37
K48P	1.41 ± 0.45
K48D	1.34 ± 0.081

Variant	STK11 functional score
K48A	0.852 ± 0.2
K48I	1.34 ± 0.13
K48L	1.3 ± 0.17
K48T	1.59 ± 0.29
K48R	1.42 ± 0.54
K48S	1.37 ± 0.19
K48V	1.24 ± 0.42
I46H	1.58 ± 0.33
I46R	0.979 ± 0.36
I46L	1.25 ± 0.14
I46C	1.17 ± 0.2
I46E	1.57 ± 0.41
I46W	0.0413 ± 0.094
I46G	0.857 ± 0.11
I46Y	1.29 ± 0.28
I46D	0.149 ± 0.15
I46V	0.613 ± 0.39
I46S	0.762 ± 0.1
I46A	1.5 ± 0.22
I46M	0.908 ± 0.76
I46T	1.24 ± 0.27
I46P	0.555 ± 0.13
R39T	0.548 ± 0.26
R39E	-0.363 ± 0.48

Variant	STK11 functional score
R39I	1.12 ± 0.38
R39N	0.65 ± 0.66
R39A	1.12 ± 0.42
R39C	0.223 ± 0.2
R39L	1.45 ± 0.17
R39H	1.13 ± 0.23
R39V	1.22 ± 0.14
R39M	1.58 ± 0.16
R39W	1.22 ± 0.49
R39G	1.04 ± 0.45
R39S	1.17 ± 0.36
R39D	1.19 ± 0.099
R39Q	0.277 ± 0.097
R39K	0.866 ± 0.75
L45K	1.53 ± 0.23
L45W	1.65 ± 0.16
L45S	1.36 ± 0.14
L45R	1.18 ± 0.29
L45F	1.1 ± 0.26
L45V	0.939 ± 0.17
L45D	1.34 ± 0.11
L45C	1.08 ± 0.4
L45G	1.25 ± 0.18
L45N	0.985 ± 0.86

Variant	STK11 functional score
L45Y	0.913 ± 0.38
L45A	0.863 ± 0.17
L45I	0.969 ± 0.33
L45T	1.27 ± 0.78
L45M	1.25 ± 0.08
R40D	1.68 ± 0.41
R40K	1 ± 0.48
R40L	0.804 ± 0.16
R40W	1.24 ± 0.38
R40V	1.64 ± 0.25
R40P	1.17 ± 0.38
R40T	1.68 ± 0.32
R40H	1.09 ± 0.64
R40A	1.6 ± 0.36
R40I	1.63 ± 0.21
R40M	1.28 ± 0.43
R40G	1.19 ± 0.27
R40E	1.41 ± 0.47
R40F	1.3 ± 0.15
R40S	0.887 ± 0.15
R40C	1.39 ± 0.074
Y36V	0.824 ± 0.12
Y36W	-0.265 ± 0.082
Y36N	1.6 ± 0.22

Variant	STK11 functional score
Y36T	1.04 ± 0.72
Y36S	0.558 ± 0.26
Y36M	0.892 ± 0.31
Y36L	1.03 ± 0.23
Y36R	1.3 ± 0.59
P38E	1.36 ± 0.39
P38A	1.06 ± 0.29
P38D	1.7 ± 0.3
P38R	0.891 ± 0.086
P38K	1.6 ± 0.22
P38W	0.876 ± 0.077
P38M	1.09 ± 0.92
P38Q	1.58 ± 0.15
P38N	0.557 ± 0.099
P38H	1.11 ± 0.58
P38V	1.01 ± 0.095
P38F	1.31 ± 0.25
P38T	0.9 ± 0.23
P38Y	0.0651 ± 0.12
P38G	0.508 ± 0.53
P38S	1.06 ± 0.12
P38L	0.812 ± 0.14
G47V	0.431 ± 0.69
G47S	1.62 ± 0.59

Variant	STK11 functional score
G47A	1.4 ± 0.58
G47R	1.31 ± 0.58
K44R	1.12 ± 0.4
K44I	1.16 ± 0.26
K44F	1.34 ± 0.26
K44Q	1.24 ± 0.31
K44D	0.859 ± 0.084
K44C	1.12 ± 0.2
K44A	1.57 ± 0.37
K44V	0.967 ± 0.15
K44S	1.4 ± 0.21
K44L	1.36 ± 0.2
K44N	1.08 ± 0.33
K44M	0.633 ± 0.17
K44G	0.448 ± 0.26
K44T	0.843 ± 0.28
K44Y	1.46 ± 0.087
K44W	1.3 ± 0.074
K41A	1.25 ± 0.34
K41C	1.47 ± 0.3
K41R	1.6 ± 0.33
K41L	1.27 ± 0.24
K41G	1.25 ± 0.13
K41D	1.39 ± 0.18

Variant	STK11 functional score
K41I	0.844 ± 0.095
K41E	1.42 ± 0.65
K41F	1.14 ± 0.082
K41S	1.46 ± 0.16
K41W	1.49 ± 0.17
K41P	1.58 ± 0.37
K41V	1.36 ± 0.19
K41T	1.27 ± 0.49
K41H	1.44 ± 0.13
K41Q	0.893 ± 0.4
A43T	1.43 ± 0.16
A43P	1.37 ± 0.46
A43I	1.18 ± 0.48
A43F	1.23 ± 0.18
A43M	1.57 ± 0.33
A43L	1.58 ± 0.34
A43Q	-0.492 ± 0.15
A43W	1.06 ± 0.11
A43Y	1.67 ± 0.16
A43R	1.64 ± 0.26
A43S	1.34 ± 0.25
A43V	0.673 ± 0.17
A43G	0.859 ± 0.32
